Experimental findings from patent US20050221288A1 are described below.

Assay [1] deals with endogenous P-TEFb complex (positive transcription elongation factor b) (UniProt P50750). Briefly: cell-based or functional assay.
Assay [2] shares this target. Briefly: GST pull-down of endogenous P-TEFb from cell extract, read out by the Tat-associated kinase assay.

Sequence of UniProt P50750 (P50750 whole entry, chain 1 of 2): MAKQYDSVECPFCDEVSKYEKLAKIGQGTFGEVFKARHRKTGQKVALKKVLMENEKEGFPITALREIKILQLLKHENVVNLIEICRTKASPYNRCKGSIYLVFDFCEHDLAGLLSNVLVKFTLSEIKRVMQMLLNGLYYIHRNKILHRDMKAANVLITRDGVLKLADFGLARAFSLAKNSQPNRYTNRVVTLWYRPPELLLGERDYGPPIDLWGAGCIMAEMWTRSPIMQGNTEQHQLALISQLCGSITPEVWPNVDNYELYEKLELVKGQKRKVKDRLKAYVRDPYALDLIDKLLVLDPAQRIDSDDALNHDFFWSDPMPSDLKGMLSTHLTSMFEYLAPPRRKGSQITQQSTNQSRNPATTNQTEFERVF
Sequence of UniProt P50750 (O60563 whole entry, chain 2 of 2, further chain): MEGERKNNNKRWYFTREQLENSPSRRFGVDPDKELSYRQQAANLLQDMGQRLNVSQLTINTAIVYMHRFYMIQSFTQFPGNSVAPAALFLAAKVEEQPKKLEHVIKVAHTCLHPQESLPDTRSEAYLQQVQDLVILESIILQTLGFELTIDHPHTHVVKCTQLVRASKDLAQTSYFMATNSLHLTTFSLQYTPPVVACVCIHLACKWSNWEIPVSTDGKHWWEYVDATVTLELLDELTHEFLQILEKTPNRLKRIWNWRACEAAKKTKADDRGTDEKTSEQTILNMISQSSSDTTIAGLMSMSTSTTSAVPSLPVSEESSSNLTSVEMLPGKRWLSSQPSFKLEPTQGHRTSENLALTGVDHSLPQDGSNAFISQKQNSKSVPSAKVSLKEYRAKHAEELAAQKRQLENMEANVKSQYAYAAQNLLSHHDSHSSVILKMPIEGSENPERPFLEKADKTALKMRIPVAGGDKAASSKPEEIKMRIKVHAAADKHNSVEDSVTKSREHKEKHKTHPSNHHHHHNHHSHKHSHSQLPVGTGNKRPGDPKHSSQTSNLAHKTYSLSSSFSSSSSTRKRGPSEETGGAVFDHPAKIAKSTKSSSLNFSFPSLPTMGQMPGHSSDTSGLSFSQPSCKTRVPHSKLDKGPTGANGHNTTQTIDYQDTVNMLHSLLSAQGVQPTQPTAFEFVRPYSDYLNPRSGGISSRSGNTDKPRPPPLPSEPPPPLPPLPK

As to “GST-Tat T23N (1-72) (from UniProt P04608 1-72)”, the extent of CTD phosphorylation (Tat-associated kinase assay after GST pull-down; U937 or 293 cell extract) (fold over wild-type Tat) in assay [1] was determined as 3.5. Moreover, in assay [2], the fold stronger binding than wild-type Tat is 3.5 fold.
